From patent US20040109854A1

Molecular target: TRAF6 dm (amino acids 1-274) fused to the GAL4 DNA binding domain (pGBT9-TRAF6 dm) (yeast; human) (UniProt P04386)
Assay: cell-based or functional assay

## recombinant TRAF6-inhibiting protein fused with the transcription activation domain of GAL4 (full length cDNA in pGAD424, expressed in yeast Y190) (from UniProt Q8TD23 1-568)
  β-galactosidase activity titer (liquid β-galactosidase assay, yeast two-hybrid): 21 unit
